Here are results for four compounds from paper PMC11948038, “Evolutionary Pro‐To‐Thr Mutation in the Intrinsically Disordered Domain of ANP32 Family Members Modulates Their Target Binding Modes” (Advanced Science, 2025).

Ends that are not written are not given here.

Assay [1] has as its target T1, cytochrome c (Homo sapiens, UniProt P99999).
T1 construct: obtained by immunizing male rabbits with full-length recombinant Cc; made in house; host or cells: E. coli BL21 (DE3)
Description: ITC titration of full-length ANP32A or ANP32A1-167 with reduced Cc. It is filed as binding. The conditions noted are these: for Kd: relative error 20%; for n (reaction stoichiometry): error 0.03; for ΔG: error 0.1 kcal/mol. As to the method:
Isothermal titration calorimetry (ITC) experiments were performed using a Nano ITC Low Volume instrument (TA Instruments, USA). The reference cell was filled with distilled water. Titration experiments between reduced Cc and ANP32A or ANP32A1‐167 consisted of 17 injections of 2.91 µL of a 400 µM reduced Cc solution into the sample cell containing 50 µM ANP32A construct. Both Cc and ANP32A proteins were dialyzed against 10 mM sodium phosphate buffer pH 7.4. Assays performed at moderate ionic strength used the same experimental setup, but proteins were dialyzed against 20 mM sodium phosphate pH 7.4 with 50 mM NaCl. Assays using ANP32A230‐249 or ANP32B232‐251 peptides were performed by titrating 1 mM peptide solution onto 110 or 150 µM reduced Cc solutions, respectively, or onto 100 µM HuR106‐326 solution, following the same injection configuration as described for ANP32A proteins. Cc and HuR106‐326 solutions were dialyzed against 10 mM sodium phosphate buffer pH 6.3; peptides were dissolved in the same solution. The stirring speed was set to 200 rpm for HuR106‐326 titration experiments and to 300 rpm for Cc titration experiments, to ensure cell homogeneity. ANP32A, ANP32A230‐249 and ANP32B232‐251 titration data were analyzed using Origin 7.0 (OriginLab), employing a single‐ligand binding site model or a two‐ligand binding sites model. In the last case, no binding cooperativity was observed. ANP32A1‐167 titration data was processed and analyzed using NanoAnalyze software (TA instruments).
ITC experiments were performed using a Nano ITC Low Volume instrument (TA Instruments, USA). The reference cell was filled with distilled water. Titration experiments between reduced Cc and ANP32A or ANP32A1-167 consisted of 17 injections of 2.91 µL of a 400 µM reduced Cc solution into the sample cell containing 50 µM ANP32A construct. Both Cc and ANP32A proteins were dialyzed against 10 mM sodium phosphate buffer pH 7.4. Assays performed at moderate ionic strength used the same experimental setup, but proteins were dialyzed against 20 mM sodium phosphate pH 7.4 with 50 mM NaCl. Assays using ANP32A230-249 and ANP32B232-251 peptides were performed by titrating 1 mM peptide solution onto 110 or 150 µM reduced Cc solutions, respectively, or onto 100 µM HuR106-326 solution, following the same injection configuration as described for ANP32A proteins. Cc and HuR106-326 solutions were dialyzed against 10 mM sodium phosphate buffer pH 6.3; peptides were dissolved in the same solution. The stirring speed was set to 200 rpm for HuR106-326 titration experiments and to 300 rpm for Cc titration experiments, to ensure cell homogeneity. ANP32A, ANP32A230-249 and ANP32B232-251 titration data was analyzed using Origin 7.0 (OriginLab), employing a single ligand binding site model or a two ligand binding sites model. In the last case, no binding cooperativity was observed. ANP32A1-167 titration data were processed and analyzed using NanoAnalyze software (TA instruments).
A general note: In ITC the heat of successive injections is recorded.

The next assay deals with 15N-labeled Cc. The assay is described as follows: NMR titration (1H-15N HSQC) of 15N Cc with ANP32A or ANP32A1-167. In kind it is binding. The conditions noted are these: low ionic strength; 25 °C. How it is done:
NMR titrations of 30 µM ^15N reduced Cc with ^14N ANP32A constructs were followed by 1D ^1H and 2D ^1H-^15N heteronuclear single quantum correlation (HSQC) spectra on a Bruker Avance-III 600 MHz equipped with a cryoprobe at 25 °C. ^15N-labelled reduced Cc (in 10 mM sodium phosphate buffer, pH 7.4) was titrated with increasing amounts of ^14N ANP32A dialyzed against the same buffer. Reduced ^15N Cc and ^14N ANP32A1-167 construct were titrated in 5 mM sodium phosphate buffer pH 6.4. To maintain the redox state of Cc and to adjust the lock signal on the NMR spectrometer, 0.1 mM of sodium ascorbate and 10% of D2O were added, respectively. Data were acquired and processed using TopSpin NMR 3.5pl7 software (Bruker).
Line broadening and chemical-shift perturbation analysis were performed using the Sparky 3 NMR assignment tool (T.D. Goddard and D.G. Kneller, University of California San Francisco, USA). Assignment of ANP32A230-249 and ANP32B232-251 peptides was performed using NMRFAM-SPARKY software distribution (National Magnetic Resonance Facility at Madison) and further imported to CCPNMR ^[1], whereby distance restraints were calculated using its built-in module.

A further assay relates to recombinant Cc. Description: Cc pulldown assay with HEK293T extracts. It is filed as binding. The settings on record: HEK293T extracts expressing ANP32A-c-myc, Western blot. As to the method: Pulldown assays were performed as previously described.^[ [31] ^] Briefly, transfected HEK293T cells were resuspended in a lysis buffer containing 10 mM Tricine‐NaOH pH 8.5, 1 mM PMSF, and cOmplete protease inhibitors (Roche). Afterward, cells were lysed by sonication (10 s, 10% amplitude, on ice), and the resulting debris was discarded after 15 min of centrifugation at 13300 rpm and 4 °C. More details on the procedure were given in the Supporting Information Appendix.
Pulldown assays were performed as previously described ^[6^]. Briefly, transfected HEK293T cells were resuspended in a lysis buffer containing 10 mM Tricine-NaOH pH 8.5, 1 mM PMSF and cOmplete™ protease inhibitors (Roche). Afterwards, cells were lysed by sonication (10 s, 10% amplitude, on ice), and the resulting debris was discarded after 15 min of centrifugation at 13,300 rpm and 4 °C.
Cc pulldown assays were carried out by incubating cell extracts with 100 µg of recombinant Cc for 16 h at 4 °C in batch. A carboxymethylcellulose matrix (Whatman) was added, and the mixture was incubated for 30 min at 4 °C in batch. To remove possible non-specific binding, the matrix was washed 3 times with 1 mL of washing buffer containing 10 mM Tricine-NaOH pH 8.5, 20 mM NaCl, 1 mM PMSF and cOmplete™ protease inhibitors. […]

The next assay has as its system histone H3. The assay is described as follows: Coimmunoprecipitation of c-myc-ANP32A/B with histone H3. In kind it is binding. The settings on record: anti-c-myc, Western blot; representative of three experiments. As to the method:
HEK293T cells were transfected with a plasmid encoding ANP32A/b-c-myc. 24 h after transfection, cells were collected for lysates preparation in buffer containing 20 mM Tris-HCl pH 7.5, 100 mM NaCl, 0.5% NP40, 0.1 mM PMSF and cOmplete™. Cells were lysed by sonication and precleared by incubation with sepharose-A beads (GE Healthcare, GE17-5280-01) for 1 h at 4 °C. The lysates were then incubated with anti-c-myc (see Pull-down assays) over night at 4 °C and subsequently with sepharose-A beads (GE Healthcare, GE17-5280-01) for 1 h at room temperature with rotation. Following 6 washes with PBS, the samples were resuspended in SDS loading buffer and analyzed by western blotting.
For orientation: In western blotting, separated proteins are transferred to a membrane and probed.

Assay [2] has as its target T1, cytochrome c. Description: ITC titration of ANP32A/B C-terminal peptides with reduced Cc. The settings on record: single binding-site model; 1 mM peptide onto 110 or 150 µM reduced Cc; 10 mM sodium phosphate pH 6.3; relative error 20%. How it is done:
Isothermal titration calorimetry (ITC) experiments were performed using a Nano ITC Low Volume instrument (TA Instruments, USA). The reference cell was filled with distilled water. Titration experiments between reduced Cc and ANP32A or ANP32A1‐167 consisted of 17 injections of 2.91 µL of a 400 µM reduced Cc solution into the sample cell containing 50 µM ANP32A construct. Both Cc and ANP32A proteins were dialyzed against 10 mM sodium phosphate buffer pH 7.4. Assays performed at moderate ionic strength used the same experimental setup, but proteins were dialyzed against 20 mM sodium phosphate pH 7.4 with 50 mM NaCl. […] ANP32A, ANP32A230‐249 and ANP32B232‐251 titration data were analyzed using Origin 7.0 (OriginLab), employing a single‐ligand binding site model or a two‐ligand binding sites model. […] ANP32A1‐167 titration data was processed and analyzed using NanoAnalyze software (TA instruments).
ITC experiments were performed using a Nano ITC Low Volume instrument (TA Instruments, USA). […] ANP32A, ANP32A230-249 and ANP32B232-251 titration data was analyzed using Origin 7.0 (OriginLab), employing a single ligand binding site model or a two ligand binding sites model. […] ANP32A1-167 titration data were processed and analyzed using NanoAnalyze software (TA instruments).

The test system of assay [3] is Heltog cells (HeLa cells constitutively expressing Cc-GFP). Description: Subcellular localization of Cc-GFP and ANP32A in Heltog cells after camptothecin. It is filed as cell-based. The settings on record: 20 µM CPT, 1 or 4 h, confocal microscopy. How it is done:
After 1 h or 4 h of CPT treatment, nuclei were stained by incubating cells with 1 µg mL^−1 Hoechst (Sigma‐Aldrich) for 10 min at 37 °C. Cells were then rinsed in pre‐warmed PBS at 37 °C to remove media traces, fixed by immersing the coverslips in a 4% formaldehyde (Sigma‐Aldrich) solution prepared in PBS for 10 min at room temperature, and then washed in pre‐warmed PBS at 37 °C. Cells were dried by incubating the coverslips in absolute ethanol for 2 min. Afterward, coverslips were mounted into glass slides using N‐propyl gallate (Sigma‐Aldrich), to preserve the fluorescence, and sealed with nail polish. Images were obtained in a Zeiss LSM 7 DUO confocal microscope using a 63× oil objective. For calcium phosphate transfection, 2.5 × 10^6 HEK293T cells were cultured in 150 mm diameter plates. After 72 h of growth, media was refreshed prior to transfection. For subcellular localization assays; 50,000 Heltog cells were grown over coverslips placed in 15.6 mm well plates for 24 h before transfection. DNA damage was then induced by replacing media for one containing 20 µM of camptothecin (CPT) and incubating cells for 1 h or 4 h. […] Afterwards, coverslips were mounted into glass slides using N-propyl gallate (Sigma-Aldrich), to preserve the fluorescence, and sealed with nail polish. […]

[4] abbreviates: low ionic strength 25 mM, first listed of two independent sites, 10 mM sodium phosphate pH 7.4.
[5] abbreviates: low ionic strength 25 mM, second listed of two independent sites, 10 mM sodium phosphate pH 7.4.
Where [6] appears, read: moderate ionic strength 100 mM, single site, 20 mM sodium phosphate pH 7.4, 50 mM NaCl.
The mark [7] stands for this setting: moderate ionic strength 100 mM, single site, 20 mM sodium phosphate pH 7.4, 50 mM NaCl, error 0.4 kcal/mol.

T1 sequence (P99999 whole entry): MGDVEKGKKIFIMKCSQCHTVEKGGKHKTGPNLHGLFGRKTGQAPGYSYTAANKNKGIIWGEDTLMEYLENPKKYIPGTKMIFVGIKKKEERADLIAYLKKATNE

Broadly, the Kd is the equilibrium constant for the complex coming apart. “ANP32A: full-length recombinant acidic leucine‐rich nuclear phosphoprotein 32 A, histone chaperone”: the dissociation constant Kd with cytochrome c [1] (low ionic strength 25 mM, first listed of two independent sites, 10 mM sodium phosphate pH 7.4, 400 µM reduced Cc into 50 µM ANP32A) was 3.6 µM; in the assay with cytochrome c [1] (low ionic strength 25 mM, second listed of two independent sites, 10 mM sodium phosphate pH 7.4, 400 µM reduced Cc into 50 µM ANP32A), 34 µM; with cytochrome c [1] (setting [6]), 32 µM. Also, the “n (reaction stoichiometry)” value is listed as 0.65 in the assay with cytochrome c [1] (setting [4]), 0.65 in the assay with cytochrome c [1] (setting [5]) and 0.60 with cytochrome c [1] (setting [6]). The ΔG is -7.4 kcal/mol with cytochrome c [1] (setting [4]), -6.1 kcal/mol with cytochrome c [1] (setting [5]) and -6.1 kcal/mol with cytochrome c [1] (setting [6]). The ΔH in the assay with cytochrome c [1] (low ionic strength 25 mM, first listed of two independent sites, 10 mM sodium phosphate pH 7.4, error 0.4 kcal/mol) amounted to 0.4 kcal/mol; with cytochrome c [1] (setting [7]), 1.5 kcal/mol. Further, the “binding to Cc by ITC, in words” value is “two molecules of Cc bind the ANP32A LCAR at independent binding sites, with no observed cooperativity” in the assay with cytochrome c [1] (low ionic strength (25 mM)) and “one of the two binding sites was lost” with cytochrome c [1] (moderate ionic strength (100 mM)). In addition, the “–TΔS” value in the assay with cytochrome c [1] (setting [7]) is -7.6 kcal/mol. Also, in the assay with 15N-labeled Cc, the “chemical-shift perturbations of Cc amide signals, in words” value is “specific chemical‐shift perturbations and substantial broadening”. In addition, in the assay with recombinant Cc, the “Cc pulldown result, in words” value is recorded as “Cc interacts with ANP32A”. Further, in the assay on histone H3, the “coimmunoprecipitation of histone H3, in words” value is listed as “H3 binds both ANP32 proteins in a similar manner”.

Regarding “EEERGEKRKRETEDEGEDDD [ANP32A230‐249 Q235E/P241T]”, the affinity at cytochrome c [2], expressed as Kd, was 190 µM.

In turn, “EEERGQKRKRETEDEGEDDD [ANP32A230‐249 P241T]” came in with a Kd on cytochrome c [2] of 190 µM.

For the compound `CC[C@@]1(O)C(=O)OCc2c1cc1n(c2=O)Cc2cc3ccccc3nc2-1` [camptothecin], the “Cc-GFP localization after camptothecin, in words” value in assay [3] was “Cc‐GFP translocated into the cell nucleus”.
